Assay results taken from article PMC11665475, “The CTR hydrophobic residues of Nem1 catalytic subunit are required to form a protein phosphatase complex with Spo7 to activate yeast Pah1 PA phosphatase” (The Journal of Biological Chemistry, 2024).

Assays:
Test in all cases: cell-based or functional assay
protein A-tagged Nem1 8R = target: T1, protein A-tagged Nem1 8R (S. cerevisiae, UniProt P38757 1-446, L414 R | L415 R | L417 R | L418 R | L421 R | V430 R | L434 R | L436 R)
T1 sequence (looked up): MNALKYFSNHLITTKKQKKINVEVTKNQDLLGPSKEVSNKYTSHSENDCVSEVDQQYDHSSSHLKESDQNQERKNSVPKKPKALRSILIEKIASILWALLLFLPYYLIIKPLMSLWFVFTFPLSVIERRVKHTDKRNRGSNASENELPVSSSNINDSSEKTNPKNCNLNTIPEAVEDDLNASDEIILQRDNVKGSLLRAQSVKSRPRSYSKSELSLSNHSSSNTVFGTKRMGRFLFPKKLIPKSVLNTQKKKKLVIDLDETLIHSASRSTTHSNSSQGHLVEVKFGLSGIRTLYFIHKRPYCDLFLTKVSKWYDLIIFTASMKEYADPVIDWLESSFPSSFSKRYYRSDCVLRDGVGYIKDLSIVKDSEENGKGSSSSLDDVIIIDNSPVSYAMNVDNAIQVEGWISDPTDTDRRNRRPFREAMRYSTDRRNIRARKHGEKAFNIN

[1] = target: T2, protein A-tagged Nem1 Δ(414–446) (S. cerevisiae, UniProt P38757 1-413)
T2 sequence (looked up): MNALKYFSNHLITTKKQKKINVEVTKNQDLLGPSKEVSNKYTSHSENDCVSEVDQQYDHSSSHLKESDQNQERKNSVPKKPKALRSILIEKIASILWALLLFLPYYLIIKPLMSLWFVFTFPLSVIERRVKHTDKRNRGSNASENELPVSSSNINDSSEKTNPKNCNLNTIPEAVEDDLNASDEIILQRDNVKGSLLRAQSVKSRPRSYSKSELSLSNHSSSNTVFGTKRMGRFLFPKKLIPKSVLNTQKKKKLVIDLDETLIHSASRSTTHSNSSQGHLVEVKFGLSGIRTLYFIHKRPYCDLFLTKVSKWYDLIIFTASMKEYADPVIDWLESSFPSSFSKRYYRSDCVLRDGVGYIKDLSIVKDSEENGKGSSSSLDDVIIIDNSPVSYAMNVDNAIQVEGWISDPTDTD

protein A-tagged Nem1 8A = target: T3, protein A-tagged Nem1 8A (S. cerevisiae, UniProt P38757 1-446, L414 A | L415 A | L417 A | L418 A | L421 A | V430 A | L434 A | L436 A)
T3 sequence (looked up): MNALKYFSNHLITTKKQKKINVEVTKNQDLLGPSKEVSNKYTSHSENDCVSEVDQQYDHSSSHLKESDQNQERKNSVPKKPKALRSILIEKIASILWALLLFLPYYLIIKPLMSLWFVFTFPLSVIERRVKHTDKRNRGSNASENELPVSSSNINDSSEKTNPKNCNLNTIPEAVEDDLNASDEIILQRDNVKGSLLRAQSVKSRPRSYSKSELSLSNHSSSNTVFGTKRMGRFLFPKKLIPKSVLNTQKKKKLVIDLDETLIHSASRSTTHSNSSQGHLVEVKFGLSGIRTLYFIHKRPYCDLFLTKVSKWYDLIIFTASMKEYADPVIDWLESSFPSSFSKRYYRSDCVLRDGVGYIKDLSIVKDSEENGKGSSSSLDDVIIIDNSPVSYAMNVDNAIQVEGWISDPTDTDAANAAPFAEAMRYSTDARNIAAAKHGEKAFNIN

share of purified phosphorylated Pah1 found in the pellet of membranes containing the Nem1-PtA variant and Spo7 after centrifugation at 100,000g (translocation of Pah1 to membranes) (protein A-tagged Nem1 8R): ≤ 20% | share of purified phosphorylated Pah1 found in the pellet of membranes containing the Nem1-PtA variant and Spo7 after centrifugation at 100,000g (translocation of Pah1 to membranes) [1]: ≤ 20% | share of purified phosphorylated Pah1 found in the pellet of membranes containing the Nem1-PtA variant and Spo7 after centrifugation at 100,000g (translocation of Pah1 to membranes) (protein A-tagged Nem1 8A): ≤ 20%
B1: Spo7 (natural protein, S. cerevisiae, UniProt P18410 1-259, looked up)
chain: MEPESIGDVGNHAQDDSASIVSGPRRRSTSKTSSAKNIRNSSNISPASMIFRNLLILEDDLRRQAHEQKILKWQFTLFLASMAGVGAFTFYELYFTSDYVKGLHRVILQFTLSFISITVVLFHISGQYRRTIVIPRRFFTSTNKGIRQFNVKLVKVQSTWDEKYTDSVRFVSRTIAYCNIYCLKKFLWLKDDNAIVKFWKSVTIQSQPRIGAVDVKLVLNPRAFSAEIREGWEIYRDEFWAREGARRRKQAHELRPKSE
